Results published in paper PMC9365860 (Cell Reports, 2022).
Like-named read-outs stand apart in the source and are kept apart here.

What was measured:
[1] = target: T1, Full-length SARS-CoV-2 Spike on HEK 293T cells (SARS-CoV-2, UniProt P0DTC2)
[2] = target: T2, Full-length SARS-CoV-1 Spike on HEK 293T cells (SARS-CoV-1 (SARS-CoV), isolate not …, UniProt P59594)
[3] = target: Recombinant stabilized SARS-CoV-2 spike for ELISA (Wuhan) (SARS-CoV-2, Wuhan, UniProt P0DTC2, stabilised)
[4] = target: T3, Recombinant S1 Wuhan (residues 1–674) (SARS-CoV-2, UniProt P0DTC2)
[5] = target: T3, Recombinant S1 Wuhan (residues 1–674); experiment: ELISA; details: both partners purified
[6] = target: T1, Full-length SARS-CoV-2 Spike on HEK …; experiment: flow cytometry on cells; details: one partner purified
[7] = target: T2, Full-length SARS-CoV-1 Spike on HEK …; experiment: flow cytometry on cells; details: one partner purified
[8] = target: T4, Full-length 229E Spike on HEK 293T cells (human coronavirus 229E, isolate not …, UniProt P15423); experiment: flow cytometry on cells; details: one partner purified
T4 construct: source: HEK293T, transfected (pcDNA3.1+), on the cell surface

[9] = target: T5, Full-length NL63 Spike on HEK 293T cells (human coronavirus NL63, isolate not …, UniProt Q6Q1S2); experiment: flow cytometry on cells; details: one partner purified
T5 construct: source: HEK293T, transfected (pcDNA3.1+), on the cell surface

[10] = target: T6, Full-length OC43 Spike on HEK 293T cells (human coronavirus OC43, isolate not …, UniProt P36334); experiment: flow cytometry on cells; details: one partner purified
T6 construct: source: HEK293T, transfected (pcDNA3.1+), on the cell surface

[11] = target: T7, Full-length MERS Spike on HEK 293T cells (MERS-CoV, isolate  (entry: …, UniProt K9N5Q8)); experiment: flow cytometry on cells; details: one partner purified
T7 construct: source: HEK293T, transfected (pcDNA3.1+), on the cell surface

Binder | binding result [1] | binding result [2] | binding result [3] | binding result [4] | binding result [5] | binding result [6] | binding result [7] | binding result [8] | binding result [9] | binding result [10] | binding result [11]
VA14_47 (antibody, V domains shown) VH: EVQLVESGGGVVQPGRSLRLSCGGSGFTFSSHAMHWVRQAPGKGLEWVAVISYDGSYQYYADSVKGRFTISRDNSKNALYLQMNSLRVEDTAIYYCARDTPDLETYYFDCWGQGTLVTVSS VL: EIVMTQSPGTLSLSPGERATLSCRASQSVSSSYLAWYQQKPGQAPRLLIYSACSRATGIPDRFSGSGSGTDFTLTISRLEPEDFAVYYCQQYGDSPRGSFGQGTKVDIK | binds | binds | binds | binds |  |  |  |  |  |  | 
P008_60 IgG (antibody, V domains shown, also called mAb P008_60; P008_060; source: HEK-293F, co-transfected heavy and light plasmids, purified (protein G)) VH: EVQLVESGGGVVQPGRSLRLTCAASGFIFSSYGMHWVRQAPGKGLEWVAVISYDGSYKYYADSVKGRFTISRDNSKNTLYLQMNSLRAEDTAVYYCTKADYYDFWSGYQKTYYYYMDVWGKGTTVTISS VL: not shown |  |  |  |  | binds | binds | binds | no binding (tested: 25 μg/mL) | no binding (tested: 25 μg/mL) | no binding (tested: 25 μg/mL) | no binding (tested: 25 μg/mL)
